Results reported in patent US20030027246A1, “Immunogenic peptides derived from prostate-specific membrane antigen (PSMA) and uses thereof” (priority 2000, published 2003).
Marks after values point to notes of the source that are not given here.

Experiments:
A2Kb transgenic mouse = assay: Immunogenicity of PSMA derived peptides in A2Kb transgenic mice (51Cr-release CTL assay); type: in vivo; conditions: 100.0 μg peptide + I-Ab-restricted peptide in IFA s.c.; splenocytes re-stimulated 6-7 days; 4 hr 51Cr-release vs peptide-pulsed P815-A2Kb targets
Protocol: The A2Kb transgenic mouse was used to assess the immunogenicity of the HLA-A0201 binding PSMA peptides. Mice of the B1O background (transgenic for the A2Kb chimeric gene) were purchased from the Scripps Clinic in California, USA. Mice were injected subcutaneously at the base of the tail with a dose of inoculum prepared by emulsifying 100.0 μg of the test peptide and 100.0 μg of an I-A^b-restricted peptide (described in Milich, D. R. et al. (1987) J. Immunol 139: 1223-1231) in incomplete Freund's adjuvant (IFA). Spleens of the experimental animals were collected on the 10th or 11th day post immunization. Spleenocytes of the experimental mice were prepared and cultured to enrich for CTLs before being assessed for effector activity. In vitro re-stimulation of the in vivo generated CTLs was performed by co-culturing in a 25 cm^2 tissue culture flask 3×10^7 responder cells (i.e. spleenocytes) with 1.3×10^7 irradiated autologous LPS (lipopolysaccharide)-blasts which had been pulsed with the respective peptide (100.0 μg per 10^8 cells). Cultures were kept in a 37° C., humidified CO2 incubator for 6-7 days before being tested for effector function in a standard 4 hr in vitro ^51Cr-release CTL assay as follows. […] Supernatant aliquots were then removed and counted for radioactivity.

[1] = molecular target: T1, HLA-A0201 molecules on T2 cells (Homo sapiens, UniProt P04439, D140Y/D185E/D98H/E176V/E277Q/G131W/G231S/I119V/I121R/I166T/I218V/L300P/L318F/N151K/N90K/P208A/P217A/Q86G/Q94H/R138H/R169H/T345S); assay: HLA-A0201 binding/stabilization of PSMA derived peptides on T2 cells (BB7.2 flow cytometry); type: cell-based; conditions: for Fluorescence Index (FI): T2 cells; for HLA-A0201 binding as judged by Fluorescence Index (FI) values: membrane-bound HLA-A0201 on T2 cells, result in words
T1 construct: endogenous in cells; host or cells: T2 cell line (Dr. Peter Creswell, Yale University)
Protocol: The ability of the PSMA derived peptides described in Table 1 to stabilize membrane-bound HLA-A0201 molecule was assessed utilizing the T2 cell line (Dr. Peter Creswell, Yale University). The cell line has been well documented to have a defective TAP (i.e. Transporter for Antigen Processing) transporter function. […] The stability of the surface HLA-A0201 molecules can be restored upon interaction with suitable exogenous peptides. The stabilization of the conformation of the class 1 MHC molecules is accompanied by the formation of an immunodominant epitope recognized by a mouse monoclonal antibody (designated BB7.2; American Type Culture Collection (ATCC)). Thus, the detection of this specific epitope is indicative of stable membrane-bound HLA-A0201 molecules loaded with peptide.
T2 cells were propagated in Iscove's complete medium (Iscove's medium supplemented with 10% heat-inactivated bovine serum, 120.0 units per ml of penicillin G sodium, 120 μg per ml of streptomycin sulphate, and 0.35 mg per ml of L-glutamine). The ability of PSMA peptides (Table 1) to bind and stabilize surface HLA-A0201 molecules on T2 cells was determined utilizing a protocol documented in the art (Deng, Y. (1997) J Immunol 158:1507-1515). In essence, 0.5×10^6 T2 cells were incubated with 125.0 μM of the test peptide in 200.0 μl of serum-free culture medium (Iscove's medium supplemented with 120.0 units per ml of penicillin G sodium, 120.0 μg per ml of streptomycin sulphate and 0.35 mg per ml of L-glutamine) overnight at 37° C. Subsequently, cells were washed twice with Iscove's medium (without bovine serum) to remove free PSMA peptide. To the cell pellet was added 1.0 ml of complete Iscove's medium (supplemented with fetal bovine serum (10% final)) containing 5.0 μg per ml of brefeldin A (Sigma), 12.5 μg per ml of anisomycin (Sigma) and 5.0 μg per ml of cyclohexamide (Sigma). […] The cells were subsequently incubated 30 min on ice prior to two washes with ice-cold PBA (phosphate buffered saline (pH 7.2) containing 2.0% bovine serum). 100.0 μl of PBA containing 5.0 μg of monoclonal antibody BB7.2 was added to each test sample. The reaction was allowed to proceed on ice for 45 min. Cells were then washed three times with ice-cold PBA. The binding of BB7.2 was detected via the addition of 100.0 μl of PBA containing 1.0 μg of goat anti-mouse IgG-Fc fluorescein (FITC) conjugate (BETHYL Laboratories Inc.). After a 30 min incubation on ice, cells were twice washed with ice-cold PBA, and twice with ice-cold PBS (pH 7.2). Cells were immediately fixed by the addition of 50.0 μl of 1.0% paraformaldehyde. Samples were analyzed by Flow Cytometry. Results were expressed in units of Fluorescence Index (FI), calculated by the equation: [formula]
An FI value of 0.5 or greater was deemed to be significant.

[2] = 125.0 μM test peptide, overnight at 37° C., then 3.0 hr de-stabilization step, FI of 0.5 or greater deemed significant

Row | Sequence | Fluorescence Index (FI) [1, 2] | HLA-A0201 binding as judged by Fluorescence Index (FI) values [1] | further results
1 | ALFDIESKV (CLP337) [CLP-337, PSMA derived peptide, amino acid position 711-719] |  |  | Immunogenicity: epitope-specific CTL responses (FIG. 1) (A2Kb transgenic mouse): immunogenic and capable of eliciting epitope-specific CTL responses
2 | ELAHYDVLL (CLP330) [CLP-330, PSMA derived peptide, amino acid position 109-117] | 0.7 | demonstrated HLA-A0201 binding | 
3 | LDSVELAHY (CLP324) [CLP-324, reference compound] |  | does not exhibit binding | Fluorescence Index (FI) ([1]; 125.0 μM peptide, analysis did not include 3 hr de-stabilization step): 0**
4 | LLHETDSAV [CLP-326] |  | demonstrated HLA-A0201 binding | 
5 | LMYSLVHNL [CLP-333] |  | demonstrated HLA-A0201 binding | 
6 | MMNDQLMFL [CLP-336] |  | demonstrated HLA-A0201 binding | Immunogenicity: epitope-specific CTL responses (FIG. 1) (A2Kb transgenic mouse): immunogenic and capable of eliciting epitope-specific CTL responses
7 | NLNGAGDPL [CLP-331] | 0 |  | 
8 | NMKAFLDEL [CLP-329] | 0 |  | 
9 | PMFKYHLTV [CLP-334] | 0 |  | 
10 | VLAGGFFLL (CLP328) [CLP-328, PSMA derived peptide, amino acid position 27-35] | 1.3 | demonstrated HLA-A0201 binding | 
11 | VLRMMNDQL [CLP-335] | 0.3 |  | 
12 | WLCAGALVL (CLP327) [CLP-327, PSMA derived peptide, amino acid position 20-28] | 0 |  | 
